Patent publication US20260049138A1 (Chugai, published 2026)

B1: 154R3A01#3 one-arm antibody (antibody, human IgG1, kappa, L234A L235A, N297A)
heavy: QVQLVESGGGLVQPGRSLRLSCAASGFAFSNAWMHWVRQAPGKGLEWVAQIKDRVNQYANYYAESVKGRFTISRDDSKNSIYLQMNSLKTEDTAVYYCRYVHYGLTGYFSGQGGVDAWGQGTTVTVSSASTKGPSVFPLAPSSKSTSGGTAALGCLVKDYFPEPVTVSWNSGALTSGVHTFPAVLQSSGLYSLSSVVTVPSSSLGTQTYICNVNHKPSNTKVDKKVEPKSCDKTHTCPPCPAPEAAGGPSVFLFPPKPKDTLMISRTPEVTCVVVDVSHEDPEVKFNWYVDGVEVHNAKTKPREEQYASTYRVVSVLTVLHQDWLNGKEYKCKVSNKALPAPIEKTISKAKGQPREPQVYTLPPSRCELTKNQVSLSCAVKGFYPSDIAVEWESNGQPENNYKTTPPVLDSDGSFFLVSKLTVDKSRWQQGNVFSCSVMHEALHNHYTQKSLSLSPDYKDDDDK
chain: EPKSSDKTHTCPPCPAPELLGGPSVFLFPPKPKDTLMISRTPEVTCVVVDVSHEDPEVKFNWYVDGVEVHNAKTKPREEQYNSTYRVVSVLTVLHQDWLNGKEYKCKVSNKALPAPIEKTISKAKGQPREPQVCTLPPSRDELTKNQVSLWCLVKGFYPSDIAVEWESNGQPENNYKTTPPVLDSDGSFFLYSKLTVDKSRWQQGNVFSCSVMHEALHNRYTQKSLSLSP
light: DIVMTQSPLSLPVTPGEPASISCRSSQSLVHSNRNTYLHWYQQKPGQAPRLLIYKVSNRFSGVPDRFSGSGSGTDFTLKISRVEAEDVGVYYCGQGTQVPYTFGQGTKLEIKRTVAAPSVFIFPPSDEQLKSGTASVVCLLNNFYPREAKVQWKVDNALQSGNSQESVTEQDSKDSTYSLSSTLTLSKADYEKHKVYACEVTHQGLSSPVTKSFNRGEC
notes: As m48
B2: 154R3F02#2 one-arm antibody (antibody, human IgG1, kappa, L234A L235A, N297A)
heavy: QVQLVESGGGLVQPGRSLRLSCAASGFTFSNAWMHWVRQAPGKGLEWVAQIKDRASGYNNYYAESVKGRFTISRDDSKNSIYLQMNSLKTEDTAVYYCRYVHYAQSVSAFFQYGVDAWGQGTTVTVSSASTKGPSVFPLAPSSKSTSGGTAALGCLVKDYFPEPVTVSWNSGALTSGVHTFPAVLQSSGLYSLSSVVTVPSSSLGTQTYICNVNHKPSNTKVDKKVEPKSCDKTHTCPPCPAPEAAGGPSVFLFPPKPKDTLMISRTPEVTCVVVDVSHEDPEVKFNWYVDGVEVHNAKTKPREEQYASTYRVVSVLTVLHQDWLNGKEYKCKVSNKALPAPIEKTISKAKGQPREPQVYTLPPSRCELTKNQVSLSCAVKGFYPSDIAVEWESNGQPENNYKTTPPVLDSDGSFFLVSKLTVDKSRWQQGNVFSCSVMHEALHNHYTQKSLSLSPDYKDDDDK
chain: EPKSSDKTHTCPPCPAPELLGGPSVFLFPPKPKDTLMISRTPEVTCVVVDVSHEDPEVKFNWYVDGVEVHNAKTKPREEQYNSTYRVVSVLTVLHQDWLNGKEYKCKVSNKALPAPIEKTISKAKGQPREPQVCTLPPSRDELTKNQVSLWCLVKGFYPSDIAVEWESNGQPENNYKTTPPVLDSDGSFFLYSKLTVDKSRWQQGNVFSCSVMHEALHNRYTQKSLSLSP
light: DIVMTQSPLSLPVTPGEPASISCRSSQSLVHSNRNTYLHWYQQKPGQAPRLLIYKVSNRFSGVPDRFSGSGSGTDFTLKISRVEAEDVGVYYCGQGTQVPYTFGQGTKLEIKRTVAAPSVFIFPPSDEQLKSGTASVVCLLNNFYPREAKVQWKVDNALQSGNSQESVTEQDSKDSTYSLSSTLTLSKADYEKHKVYACEVTHQGLSSPVTKSFNRGEC
notes: As m48
B3: 154R3A01#4 one-arm antibody (antibody, human IgG1, kappa, L234A L235A, N297A)
heavy: QVQLVESGGGLVQPGRSLRLSCAASGFTFSNAWMHWVRQAPGKGLEWVAQIKDRVNQYANYYAECVKGRFTISRDDSKNSIYLQMNSLKTEDTAVYYCRYVHYGLTGYFSGQGGVDAWGQGTTVTVSSASTKGPSVFPLAPSSKSTSGGTAALGCLVKDYFPEPVTVSWNSGALTSGVHTFPAVLQSSGLYSLSSVVTVPSSSLGTQTYICNVNHKPSNTKVDKKVEPKSCDKTHTCPPCPAPEAAGGPSVFLFPPKPKDTLMISRTPEVTCVVVDVSHEDPEVKFNWYVDGVEVHNAKTKPREEQYASTYRVVSVLTVLHQDWLNGKEYKCKVSNKALPAPIEKTISKAKGQPREPQVYTLPPSRCELTKNQVSLSCAVKGFYPSDIAVEWESNGQPENNYKTTPPVLDSDGSFFLVSKLTVDKSRWQQGNVFSCSVMHEALHNHYTQKSLSLSPDYKDDDDK
chain: EPKSSDKTHTCPPCPAPELLGGPSVFLFPPKPKDTLMISRTPEVTCVVVDVSHEDPEVKFNWYVDGVEVHNAKTKPREEQYNSTYRVVSVLTVLHQDWLNGKEYKCKVSNKALPAPIEKTISKAKGQPREPQVCTLPPSRDELTKNQVSLWCLVKGFYPSDIAVEWESNGQPENNYKTTPPVLDSDGSFFLYSKLTVDKSRWQQGNVFSCSVMHEALHNRYTQKSLSLSP
light: DIVMTQSPLSLPVTPGEPASISCRSSQSLVHSNRNTYLHWYQQKPGQAPRLLIYKVSNRFSGVPDRFSGSGSGTDFTLKISRVEAEDVGVYYCGQGTQVPYTFGQGTKLEIKRTVAAPSVFIFPPSDEQLKSGTASVVCLLNNFYPREAKVQWKVDNALQSGNSQESVTEQDSKDSTYSLSSTLTLSKADYEKHKVYACEVTHQGLSSPVTKSFNRGEC
notes: As m48
B4: 154R3B01#1 one-arm antibody (antibody, human IgG1, kappa, L234A L235A, N297A)
heavy: QVQLVESGGGLVQPGRSLRLSCAASGFTFSSAWMHWVRQAPGKGLEWVAQIKDKQNQYNAYYAESVKGRFTISRDDSKNSIYLQMNSLKTEDTAVYYCRYVHYATSDGFLPYFGVDAWGQGTTVTVSSASTKGPSVFPLAPSSKSTSGGTAALGCLVKDYFPEPVTVSWNSGALTSGVHTFPAVLQSSGLYSLSSVVTVPSSSLGTQTYICNVNHKPSNTKVDKKVEPKSCDKTHTCPPCPAPEAAGGPSVFLFPPKPKDTLMISRTPEVTCVVVDVSHEDPEVKFNWYVDGVEVHNAKTKPREEQYASTYRVVSVLTVLHQDWLNGKEYKCKVSNKALPAPIEKTISKAKGQPREPQVYTLPPSRCELTKNQVSLSCAVKGFYPSDIAVEWESNGQPENNYKTTPPVLDSDGSFFLVSKLTVDKSRWQQGNVFSCSVMHEALHNHYTQKSLSLSPDYKDDDDK
chain: EPKSSDKTHTCPPCPAPELLGGPSVFLFPPKPKDTLMISRTPEVTCVVVDVSHEDPEVKFNWYVDGVEVHNAKTKPREEQYNSTYRVVSVLTVLHQDWLNGKEYKCKVSNKALPAPIEKTISKAKGQPREPQVCTLPPSRDELTKNQVSLWCLVKGFYPSDIAVEWESNGQPENNYKTTPPVLDSDGSFFLYSKLTVDKSRWQQGNVFSCSVMHEALHNRYTQKSLSLSP
light: DIVMTQSPLSLPVTPGEPASISCRSSQSLVHSNRNTYLHWYQQKPGQAPRLLIYKVSNRFSGVPDRFSGSGSGTDFTLKISRVEAEDVGVYYCGQGTQVPYTFGQGTKLEIKRTVAAPSVFIFPPSDEQLKSGTASVVCLLNNFYPREAKVQWKVDNALQSGNSQESVTEQDSKDSTYSLSSTLTLSKADYEKHKVYACEVTHQGLSSPVTKSFNRGEC
notes: As m48

Target: T1, human CD154 (human, UniProt P29965 113-261, limits assumed, biotin-labeled)
T1 construct: also called biotin-labeled human CD154; biotinylated human CD154
T1 sequence (looked up): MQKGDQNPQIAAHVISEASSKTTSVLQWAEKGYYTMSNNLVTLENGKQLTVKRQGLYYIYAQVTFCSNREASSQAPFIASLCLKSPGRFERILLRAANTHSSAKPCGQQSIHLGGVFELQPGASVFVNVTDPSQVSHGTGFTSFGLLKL
Experiment: ECL competition, CD3ε[+]: CD3ε homodimer added as competitor [1]
Experimental: Next, each obtained IgG was evaluated for its binding to CD3 and human CD154 at the same time by the competition method (electrochemiluminescence method (ECL method)).
A TBST solution containing 0.5% BSA (referred to as a blocking solution; the TBST solution was TBS (manufactured by Takara Bio Inc.) supplemented with 0.1% Tween 20) was added at 150 μL/well to streptavidin plate (MSD K.K.), and the plate was incubated at room temperature for 1 hour or longer. After removal of the blocking solution, each well was washed three times with 250 μL of a TBST solution. The antibody-antigen complex solution was added thereto at 50 μL/well, and the plate was incubated at room temperature for 1 hour so that the biotinylated antigen-antibody-detection sulfo-tag antibody complex solution bound via the biotinylated antigen to the streptavidin plate. After removal of the antibody-antigen complex solution, each well was washed three times with a TBST solution, and a solution of 4×READ buffer (MSD K.K.) diluted 2-fold with water was added thereto at 150 μL/well, followed by the detection of the luminescence signal of the sulfo-tag using Sector Imager 2400 (MSD K.K.).

Row | Binder | relative ECL reaction (to no antigen coating)
1 | B1 | 19
2 | B2 | 16
3 | B3 | 4
4 | B4 | 18
